This is an account of results in article PMC8933513 (2022).

For experiment [1], the target named is human aminopeptidase N (hAPN) ectodomain, residues 62-963, wild type (UniProt P15144). Nature of the experiment: SPR; […], room temperature; […] (0.01 M HEPES, 0.15 M NaCl, 0.5% surfactant P20, 3 mM EDTA, pH 7.4); […]. On the technique in general: In SPR one partner is held on a chip, and binding of the other changes the refractive index at the surface.
Experiment [2] has as its target porcine aminopeptidase N (pAPN) ectodomain, residues 58-961, wild type (pig) (UniProt P15145). Described as above.

Chain of human aminopeptidase N (hAPN) ectodomain, residues 62-963, wild type (P15144 62-963): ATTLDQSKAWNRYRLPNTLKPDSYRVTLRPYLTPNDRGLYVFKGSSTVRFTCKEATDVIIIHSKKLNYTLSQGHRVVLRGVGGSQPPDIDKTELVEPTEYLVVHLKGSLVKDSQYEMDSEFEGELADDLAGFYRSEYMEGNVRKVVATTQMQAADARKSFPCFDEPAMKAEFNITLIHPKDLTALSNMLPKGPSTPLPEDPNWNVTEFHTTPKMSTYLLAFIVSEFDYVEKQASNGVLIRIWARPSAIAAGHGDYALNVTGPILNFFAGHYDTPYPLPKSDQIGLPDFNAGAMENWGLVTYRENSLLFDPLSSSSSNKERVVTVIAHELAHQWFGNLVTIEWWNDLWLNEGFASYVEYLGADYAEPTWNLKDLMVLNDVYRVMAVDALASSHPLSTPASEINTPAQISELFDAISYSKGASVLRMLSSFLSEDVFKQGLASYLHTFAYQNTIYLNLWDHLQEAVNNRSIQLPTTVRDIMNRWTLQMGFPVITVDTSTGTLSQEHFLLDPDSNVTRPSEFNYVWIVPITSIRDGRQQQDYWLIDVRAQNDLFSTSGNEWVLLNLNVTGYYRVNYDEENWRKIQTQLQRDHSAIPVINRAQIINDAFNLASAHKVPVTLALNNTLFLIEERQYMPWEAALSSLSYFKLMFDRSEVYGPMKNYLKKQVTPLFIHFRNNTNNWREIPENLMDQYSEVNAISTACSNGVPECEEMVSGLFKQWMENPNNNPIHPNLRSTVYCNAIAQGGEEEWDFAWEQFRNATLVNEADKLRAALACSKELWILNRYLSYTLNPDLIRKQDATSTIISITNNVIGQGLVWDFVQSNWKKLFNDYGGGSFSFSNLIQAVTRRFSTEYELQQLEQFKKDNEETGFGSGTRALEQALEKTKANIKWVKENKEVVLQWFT
Chain of porcine aminopeptidase N (pAPN) ectodomain, residues 58-961, wild type (pig) (P15145 58-961): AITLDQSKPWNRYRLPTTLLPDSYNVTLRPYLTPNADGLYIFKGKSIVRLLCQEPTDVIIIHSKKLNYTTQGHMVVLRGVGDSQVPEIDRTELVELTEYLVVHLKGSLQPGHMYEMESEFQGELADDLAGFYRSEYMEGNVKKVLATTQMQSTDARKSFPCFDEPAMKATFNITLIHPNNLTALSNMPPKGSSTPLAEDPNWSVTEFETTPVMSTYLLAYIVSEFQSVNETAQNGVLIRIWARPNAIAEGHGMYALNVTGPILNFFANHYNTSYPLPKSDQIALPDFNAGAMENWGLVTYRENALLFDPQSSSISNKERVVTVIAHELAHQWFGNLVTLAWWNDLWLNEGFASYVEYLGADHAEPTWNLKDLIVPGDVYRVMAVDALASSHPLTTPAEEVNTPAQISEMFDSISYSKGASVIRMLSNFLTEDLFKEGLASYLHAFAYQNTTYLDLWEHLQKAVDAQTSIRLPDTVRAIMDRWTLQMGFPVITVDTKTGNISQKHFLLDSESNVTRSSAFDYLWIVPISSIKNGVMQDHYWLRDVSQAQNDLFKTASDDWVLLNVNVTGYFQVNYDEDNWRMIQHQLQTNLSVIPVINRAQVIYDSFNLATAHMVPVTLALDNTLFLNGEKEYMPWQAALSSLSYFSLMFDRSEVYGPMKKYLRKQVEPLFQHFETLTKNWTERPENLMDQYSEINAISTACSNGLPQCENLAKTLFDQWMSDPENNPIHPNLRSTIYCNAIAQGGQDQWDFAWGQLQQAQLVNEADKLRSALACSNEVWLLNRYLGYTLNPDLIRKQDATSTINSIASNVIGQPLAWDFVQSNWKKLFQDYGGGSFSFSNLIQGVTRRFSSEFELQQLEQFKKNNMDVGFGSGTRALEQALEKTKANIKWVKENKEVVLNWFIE

In the case of “PDCoV RBD with mutation of residues F318, E320, R322, R357, and Y398”, the fold decrease in affinity against wild-type PDCoV RBD in experiment [1] and in experiment [2] was 5 to 150 fold throughout.
